The data set is described as follows: soluble fraction after stress (log2 fold change); higher = more stays soluble; pooled small domains, quantitative proteomics. Particulars: stress: pH 4. Summed up: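 Custom libraries of small protein domains were pooled and exposed to pH 4. High-throughput quantitative proteomics then measured the log2 fold change in the amount of each domain still soluble, with higher values meaning more stayed soluble. This soluble-fraction fold change stands for aggregation propensity.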
As to “HMLSSAAAIDRILAGGTAAMNHRQFDAALTSFNTVIEMRPDFAEGWNKRATLYYLIGEYERSIADVERTLA”, the “soluble fraction (log2)” value stood at 0.0555. On to “HMLSTRERMSSLMAQLQVQQFMPFHRLFTISEGRMGVIVTFLAMMELVKENLIKLIQAQEYGPIHVSLG”, for which the “soluble fraction (log2)” value was 0.22. Under “HMLSVRERMSAILVSLEGERYADFTGLFDPTEGKGGVTVTFLAILELLKESMIDVVQNELYGPIHVRAA” stands 0.122. In the case of “HMLSVRNRMSDVLKSLDDGEFHRFESLFNLEEGRLGVVVTFLAMLELAKEMLVEIVQNESLGPIYLKSR”, the “soluble fraction (log2)” value stood at 0.144. Take “HMLSVRQRMGELLERLADGQFHRFESLFTVEEGKLGVVVTFLGLLTLAKEQLLDIVQEGPTAPIYVKSLA”: the “soluble fraction (log2)” value is 0.0784. For the sequence “HMLSVTLTVLPQQAGERLDAFAAAESTLSRSAAAKLIEDGQITVNGARAAKNYRLRAGDVIEIDEPEPI”, the “soluble fraction (log2)” value came to 0.194.

Take “HMLTAPMPGTIQQILVTKGQKVRSGQTLMILEAMKMEHKIKAPNSGEIISINYSLGNRVEMGANLIEI”: the “soluble fraction (log2)” value was determined as 0.0752. Consider “HMLTDAAAVKRSVRNLVQYGFYEKPFHPEIGSGVRDLLFENMTPFVANNLSKQIEEIITNYEPRA”, for which the “soluble fraction (log2)” value was -0.126. For “HMLTDMSKIRKVLKLYGKGNSKLFISTYLSLSRNTVKKYISLFEVSGKTIEEILAKSDSELELLFSG”, the “soluble fraction (log2)” value is -0.0775. Turning to “HMLTEREQDTLNFIRQYIDEQGRSPLVSEIAKGLGIKSQGTTHRYIQALVDAGLLERHVGRTRGLHLT”, the “soluble fraction (log2)” value was -0.352. On to “HMLTGADAEKATAAAQAEFPGGTVLRVETDADGTYEAHVRKADGTEVEVKMDKDFKVTSVEE”, for which the “soluble fraction (log2)” value was -0.0221.

With “HMLTLAVPNSINMRLDKYLSENIDYLSRSKIQGLINDGKVTINGENEKSSYKLNGDESIVIYYEE”, the “soluble fraction (log2)” value was -0.775. As to “HMLTPQEIGSRLKLVRQGLQLKQQEVAEIIGTSQLKISKIEQGATVTTPDFLKLLAFYSQSVSLDILF”, the “soluble fraction (log2)” value was -0.652. For the sequence “HMLTRQRKQLLEYLSKHTDEQMTARQIADALTAESISISAVYRNLSALEEEGILKRSIRENTREVYYQYIA”, the “soluble fraction (log2)” value was -0.231. For “HMLTSIDQMLKLAMPDSDITVSKMNGLILLTGTVKAPEDAAEAERLVQAFSAPPPGQPPVTVVSRLRTA”, the “soluble fraction (log2)” value was 0.22. On to “HMLTTMSSQWKPSLDAIEILEKSGIAYSFIEDAIPEFVLYWRERGISHGAWNTKFVEHIRKQWAKFEAS”, for which the “soluble fraction (log2)” value turned out to be 0.21.

On to “HMLTTVAAQRAALHQEEDITKLREIILKLVPFWGLDGGAYADKETSIQLERQYRESFDQAVSAARRSGQA”, for which the “soluble fraction (log2)” value is -0.234. “HMLTWNQLGLITKPVVFLDGTGYYARLFEAFEHMISTGFVKENYRAMMNRATSVEEAVRIASSPAPKVD”: the “soluble fraction (log2)” value is -0.187. In the case of “HMLVGGPDTPSKVTVSFDLGSRQAVDELTERAGAAGGRIGDIDDYPFMYQRQFDDPDGYHYSPFWMKP”, the “soluble fraction (log2)” value is -0.528. On to “HMLVTQSITVPMAMSGIRLDAALAMLFPDHSRNRLKAWLDDGHILVDGAVWAGKQRLEGNEEITATLPEAK”, for which the “soluble fraction (log2)” value is -0.189. For the sequence “HMLYDNQLPDWAGQMVKNHGLTISPKALVILVDHIGNDLSRIENEIEKLMLNLGTRKSITEDDVEN”, the “soluble fraction (log2)” value is -1.34. Consider “HMLYETLKKGDQGTSVKTLQEKLKALGYLTGAADGKYGAGTETAVKSFQKAAGLTETGTADPETLSAVYAA”, for which the “soluble fraction (log2)” value is 0.0393. The value for “HMLYITEIQKKIMDAFLVVANESNSGTRITMNEIANKVRMTPQAIYRKHFKSVIEISDTIRD” was -1.17. Take “HMMEERVIEFANVLRRNGVRVSLAENMDAFRALKSLGISDPLLFRHALRATLIKRGSDIQPFEELFDFFFL”: the “soluble fraction (log2)” value was -1.08. The value for “HMNAAFMKAERLLAILNILLTGKRVSSTELAKKLEVSVRTVYRDVEALSEAGFPVYATMGRDGGFGLIEGF” was -1.58. “HMNADAIIGRMGKVTEPITPDGYGRVEIDGDSWKATAVGGVAIAEGTRVSVVSLDSIIITVKTV”: the “soluble fraction (log2)” value was -0.117. “HMNADAIVGRTGVVTEAIAADGFGRVQIDGDSWKAKASGNNGIDVGAKVRVLRIDSIILTVEK”: the “soluble fraction (log2)” value came out at 0.059. Under “HMNAELSTVQAAEVLNVSRPFLIKLLEDGAIPHRKVGKHRRVRMEDVMSYKAAIDTEREAVLDQLAA” stands -0.722. Regarding “HMNAISIDEAKKIALAKVSGASDQHIRIEADHDDGRLVYEGEIHYGRVEYEFEIDGSTGAIIEWDADRK”, the “soluble fraction (log2)” value was -0.0156. Regarding “HMNAKKSTLQLDLLKQLLEGNKISLKDFSLSNEISIRTAQRYIEDLLEIFEKNIVKEGDFYSFIS”, the “soluble fraction (log2)” value was -1.34. Under “HMNAKNPRALAIQYVFKMQMGNFLHAKTDNQQQEQERIMTLFNEENKNTILPRWGKELLSYINRN” stands -0.208; under “HMNDENIIIEEIKYFIKSNQIKEQEKLPSERNLSELFTVSRFSLRKALRHLVDTGYLYVKDKSGYYYQGD”, 0.00355. As for “HMNDLIKMPYLVGQLYDDVASNQEYADFQFKITEGNDPDKQPGEIMKQDPAADIMVKKNAEVELLVNG”, the “soluble fraction (log2)” value was 0.193. Regarding “HMNDLKEDTITVQSVEYIDSDDGTMVYIKDTNHQVYKQAFKEDESLIRISAGDVLHVKYQPMDNEIHLL”, the “soluble fraction (log2)” value was -2.07. “HMNDMPELLSIKEASQWATEYLNKNVTTSNIAYLIQYGRIRKIGNNGSTQVLKDDLVKYYKDQK”: the “soluble fraction (log2)” value was -0.0394.

“HMNDMWADITINANGKATLVVHTHEIKYLGLTGHLGKMEINGTAKEPVKDSSGDVVDYYFTFTDLDASMF”: the “soluble fraction (log2)” value is -0.623.

As to “HMNDNFTPDDLNRLARIKDLPQAKKYALELISNKSAKPMKPEKVRWFANQLQKKKSVMDITKMMYDLLLA”, the “soluble fraction (log2)” value worked out at 0.198. Take “HMNDNTAINEFKKMVFTRMVHLQIDNAELSKLSGVTNSKILALKYGNSNTLKLGDIVKVAKTLNINLNDL”: the “soluble fraction (log2)” value was found to be 0.094. Take “HMNDPFVILGVSKDASQSEILEAYKQKRAYYQERVFDEGDEGAQAARMLTQLDDAYQQAMELSHES”: the “soluble fraction (log2)” value stood at 0.17.

Turning to “HMNDPIESLTPREREVLTLMAEGRTNAAIAAQLVVTEGAVEKHTQHIFAKLGLLPDSAVHRRVKAVLALLS”, the “soluble fraction (log2)” value was -0.637.

With “HMNDPNAPITENQLKAIHVLLDKLKVDDNLKHAYIADVLQLDNEPETLKTLTKAQGSMAIERMQLLKDN”, the “soluble fraction (log2)” value was -0.42. Regarding “HMNDQLIYSDFIRQVQDGQITEVTISGLNIAGTRSDGSVFNTLRPYIEDPKLIDDLLSHNVRIQGAE”, the “soluble fraction (log2)” value is -0.632.

Regarding “HMNDRERIGKRIAQLRMEAGISQYKLAELTGLAPGNIARIETGKYSTGIDILSKIGDALGYQLDFI”, the “soluble fraction (log2)” value is -0.414. Under “HMNDRLAGMEGQRGEAATNFDQGEGKVKVGDTVWLAKQSDSTVIVEGDQIVVTGSENGLLKVRL” stands -0.453; under “HMNDTLGVNIKRLRKEKGMTQDEVAKAVYTTRYNILRYESGKMTPSSEVIERLEKALGVPTGSLAQ”, -0.0881. For “HMNDTSLIIDNLMLKLGNNIKNFSEIYSLLRKNLAEYGEEFIKSKVDYVLKNFNDNIEENLKKLLTE”, the “soluble fraction (log2)” value was -0.601. Consider “HMNDVGKVLNQLGERDRMILLLTYWDELPLKEAARILEVSENNAKIILFRARSRFASLWSAGS”, for which the “soluble fraction (log2)” value was -0.794. With “HMNEAVVVPDVKGLTLDEADEFFKNSKLRYNVVDSVFSKDVAPGAIVELVPVAGSKVKENRIVFVTINAQ”, the “soluble fraction (log2)” value is -0.517. The value for “HMNEDTEDIKNINSLVNKLTENNFDIIRDSIVKLINKEHLIPYIIETIIEKSILHHRYVHLYVSILKE” was -0.119. Under “HMNEDYSSMVGKTGFALTILRPAGKIMIEEEVFDAVAINGYISKGQEVEVVRYENAQLYVKVK” stands -0.228; under “HMNEFGIPDKKLQDIETRVNSMSLEQLNAARSMLIDEQEALNSSTGSASSGRLKEIAAELSTIQKALIAIA”, -0.0513. The value for “HMNEFNEVVPDSLEGERLDRLLAFIGNISRSEASNIIKGGEVLINGKVVTRPSFKVTLGNRVEFSIRD” was -0.19; that for “HMNEGETLYRLRAGDGRARLDKFLAAALPDISRTRFKGLIESGHVRVGGETITEPAYRVKSEAEVELTVPE” was 0.0187. With “HMNEIALETAIEDVESFIQMQNRNLAFSIDEDTDRAVVTVRDSDSGDVIRQIPSEEVLALAERIQDLQQD”, the “soluble fraction (log2)” value was -0.485. Turning to “HMNEIDDYDIQLLEYLSKGVSQEAMESVFKQAGITPNSKSTIEKRISKLKIYFKALNTTHLVSITKDLGL”, the “soluble fraction (log2)” value was -1.27. The value for “HMNEKEAEEAAEAQTEVPDVTGMAPAQAKNMLYQAGLSSEYRGEGETVSRQLPPAGETVNRGTKAVLYL” was 0.2; that for “HMNEKGTNSTINEITRISKPGRRVYVGSAEIPKVKSGRGLVLISTSKGVMTGAEAAKAKLGGELLLKV” was 0.129; that for “HMNEKMKEIGLRIKELRELSDISAQGMADHLKIPLETYQEYEDGKKDIPASILFEISQKMEVDMGLLLTGE” was -0.253. As for “HMNELTDKQILLFSNKLAHNIPFSSKYSKPGESYEEFAERLANELIDPQKVKLYKPYLEEVGFK”, the “soluble fraction (log2)” value worked out at 0.112. Consider “HMNEMIFNQKKIGQFFMNPETNSPMIYPLELGHKMKIIELKNGWYNVTDEKTGLNGWVKEEDFGVTKPLDS”, for which the “soluble fraction (log2)” value was determined as 0.0629. Take “HMNENDENLRQQAIDASKEVRRWGEPVTLPPMNAHDRRIIHITLEGESDLQTESTGEGNFKSVVISLK”: the “soluble fraction (log2)” value was 0.0645. Consider “HMNEPSSYGYAISVALDRNGLGTVKGGTLYPLLARLEQAAHVETRWEAGDGGPGRKYYTITDSGRS”, for which the “soluble fraction (log2)” value was -0.41. Consider “HMNERLKQLRLSLNLNQEEFGKWLGISKSGVSDIESGRRKVTEQHIIMLSNHNISEKWLRTGEGEMFV”, for which the “soluble fraction (log2)” value was 0.0158. Under “HMNETNKMPNLVNQTDSSAIAQLNAMELGLKITTKEESSETVLAGYVIRTEPAADTELTKNQAVTVYVS” stands 0.0693; under “HMNETTVPDVINQNISTGKIIIEDADLEYRIQYIPSEKSSSIGTIINSIPIYGKRVKSGTIVDLKVLG”, -0.34. Consider “HMNETVTNQTVLDLLKEGFTSEEIIGAIENSSTRTITYDINFMRQLKAAGADVTLTTYLQKIAKKDM”, for which the “soluble fraction (log2)” value was -0.711.

With “HMNEWSIDINLADEKQWTAKTKLSPAIIQNIIRYKNYLGGFTNLNQIKKVYGFTEANYYLLKPHLQLGK”, the “soluble fraction (log2)” value is -0.386. Consider “HMNFDLDSFKQRMTLDGLYFGNEKQDVIALNNLSERYQLTWFDVYQLAKETSSNHKILPKRILVKLQQ”, for which the “soluble fraction (log2)” value was 0.158.

For the origin of these results see the domain aggregation screens of Martell et al. (2025).
